± gives the standard deviation.
Assay: protein stability index of a GFP-peptide fusion (GPS, HEK-293T) (PSI 1-6); higher = more stable
[1] = treatment: DMSO, c terminus: a fixed tail appended
[2] = treatment: MLN4924 1 uM, 8 h, c terminus: a fixed tail appended
[3] = treatment: DMSO, c terminus: native
[4] = treatment: MLN4924 1 uM, 8 h, c terminus: native
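Further: 24-mer peptide tiles fused after GFP, lentivirally expressed, FACS-sorted into six equal bins by GFP/DsRed ratio, decoded by Illumina sequencing, PSI is the read-weighted mean bin number.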

Row | Sequence | protein stability index [1] | protein stability index [2] | protein stability index [3] | protein stability index [4]
1 | GDDAPKEEVDTGAVNLIESGACGA [INTS4] | 5.5 ± 0.25 | 5.36 ± 0.18 | – | –
2 | QAQPLRTTSTLASSLPGHAAKTLP [EHMT1] | 4.33 ± 0.16 | 4.4 ± 0.29 | – | –
3 | TIVEEVQDGKVISSREQVHQTTR [KRT17] | – | – | 5.03 ± 0.23 | 5.08 ± 0.25
4 | DHQDSDEFCRNTLCAPEVISLINT [FAF2] | 3.72 ± 0.37 | 3.67 ± 0.38 | – | –
5 | SKDCKPPVYLLLELEDKDGLQSAQ [MYBL2] | 3.93 ± 0.18 | 3.87 ± 0.12 | – | –
6 | ARFQDKQYSSHHTAEKRKRLGELF [CHGB] | 3.58 ± 0.44 | 3.56 ± 0.11 | – | –
7 | APSFSSYLYFLFCPTLIYRETYPR [SOAT2] | 2.99 ± 0.17 | 2.7 ± 0.44 | – | –
8 | IHHLVLTASDGGDPLRSGTVLVSV [PCDHGA10] | 2.97 ± 0.45 | 2.79 ± 0.34 | – | –
9 | AVMRGQILNLTQALKDNKSPLHLV [PI4K2A] | 2.33 ± 0.33 | 2.3 ± 0.24 | – | –
10 | RWTSYRFSRVCRLHRGQLSLFCLE [TRIM35] | 2.43 ± 0.54 | 2.23 ± 0.42 | – | –
11 | CSKSFRQRAGLIMHQVTHFRGLI [ZNF449] | – | – | 2.92 ± 0.45 | 3.08 ± 0.35
12 | STPAPAERPLPNPEGLDSDFLAVL [SLA] | 4.29 ± 0.35 | 4.26 ± 0.21 | – | –
13 | TLHNLSHHREGLLAIFKSGGIPAL [CTNNB1] | 2.4 ± 0.11 | 2.38 ± 0.24 | – | –
14 | AIELFHSYRETRRKEGIVKLKPHE [PTPN9] | 3 ± 0.2 | 3.25 ± 0.27 | – | –
15 | VVIFQREPESKNAPHSQGEYDVYS [PPP2R2C] | 2.5 ± 0.23 | 2.85 ± 0.27 | – | –
16 | HIWELSSIKNSLKVAAISESPVAE [PTGFR] | 3.11 ± 0.28 | 3.21 ± 0.39 | – | –
17 | CPVEYNNDTNSFTVDCEPSDLFRL [CDS2] | 3.94 ± 0.21 | 4.03 ± 0.17 | – | –
18 | SGTPKRYSLELGKAIKQKLWEALC [C22orf31] | 2.9 ± 0.67 | 2.9 ± 0.37 | – | –
19 | KGEEVTPISAIRHEGKTDSERTDT [EPB41L3] | 5.44 ± 0.45 | 5.43 ± 0.3 | – | –
20 | GMLCSFRIPGAWSCAWSLNIQANN [DCAF4] | 2.69 ± 0.8 | 2 ± 0.29 | – | –
21 | KDIDMFSMCEHHLVPFVGKVHIGY [GCH1] | 2.34 ± 0.76 | 2.27 ± 0.36 | – | –
22 | GRQERGLPPSMERGYPPPRDSYSS [RBMX] | 4.77 ± 0.088 | 4.71 ± 0.19 | – | –

Row | Sequence | protein stability index [1] | protein stability index [2] | protein stability index [3] | protein stability index [4]
23 | VLLTQIESKKHQVETAFERLQQEL [TRIM15] | 2.73 ± 0.27 | 2.77 ± 0.38 | – | –
24 | STKMDCVWSNWKSQAIDLLYWRDI [RTN1] | 2.37 ± 0.34 | 2.27 ± 0.28 | – | –
25 | AGNKAALLDQIREGAQLKKVEQNS [WASL] | – | 5.24 ± 0.4 | – | –
26 | APFTDEQLYMEQFTKANFWYQPSF [CARM1] | 2.31 ± 0.42 | 2.21 ± 0.26 | – | –
27 | PEGYNLKDEEGRLRDPATITTLRV [PPP2R2B] | 4.54 ± 0.062 | 4.37 ± 0.29 | – | –
28 | ARGTGSGEDSSTSSSTPLEDEEPQ [RTN2] | 5.7 ± 0.15 | 5.62 ± 0.24 | – | –
29 | DDFHTNDVCSFPNALVTKLLLDCG [FEM1B] | 2.55 ± 0.26 | 2.44 ± 0.2 | – | –
30 | IVTWFMLLYAQGLLAIQFLEFFYG [SLC19A2] | 3.28 ± 0.52 | 3.18 ± 0.46 | – | –
31 | PDEERPLRRPRPVQRTQSVPVRRP [RASAL3] | 5.19 ± 0.27 | 5.21 ± 0.18 | – | –
32 | EGYRVSQALRENTYPFLAMIMLKD [FAF2] | 2.36 ± 0.2 | 2.44 ± 0.29 | – | –
33 | AAGELPTVECYNPRTNEWTYVAKM [KLHL13] | 3.11 ± 0.37 | 3.2 ± 0.42 | – | –
34 | APHSQGEYDVYSTFQSHEPEFDYL [PPP2R2C] | 4.22 ± 0.19 | 4.13 ± 0.2 | – | –
35 | AQYSVTGSAVARAVCKATTHEVMG [SNAP91] | 3.34 ± 0.088 | 3.23 ± 0.2 | – | –
36 | REEDFPSLREYNDFLEEVEEIVFN [MNAT1] | 3.82 ± 0.16 | 3.73 ± 0.28 | – | –
37 | LVDNVYCIGQRRFHTMDELVEHYK [NCK2] | 3.68 ± 0.24 | 3.96 ± 0.16 | – | –
38 | AACTRALESSEELLETANQTLQAM [FSD1] | 5.14 ± 0.16 | 4.84 ± 0.38 | – | –
39 | TQVKVVKFSYMWTINNFSFCREEM [SPOPL] | 2.65 ± 0.92 | 2.77 ± 0.72 | – | –
40 | LASDKTSAGNAPLNEEINIASSDS [C18orf25] | 5.48 ± 0.17 | 5.46 ± 0.16 | – | –
41 | EGCTGALHILARDVHNRIVIRGLN [CTNNB1] | 2.65 ± 0.23 | 2.71 ± 0.17 | – | –
42 | SRREREPEPPAAVDFLEPDSGTCP [FCHO1] | 5.43 ± 0.22 | 5.44 ± 0.33 | – | –
43 | RKWHKASNYIFVAIFWIVFLLLIV [P2RY14] | 3.34 ± 0.35 | 3.43 ± 0.17 | – | –
44 | SMDIARGLMVTCGTDRIVKIWDMT [WDFY1] | 2.25 ± 0.43 | 1.92 ± 0.33 | – | –

Row | Sequence | protein stability index [1] | protein stability index [2] | protein stability index [3] | protein stability index [4]
45 | LSAASPDTGHDSDKSDQSLPNASA [TRAF3IP2] | 5.53 ± 0.28 | 5.51 ± 0.13 | – | –
46 | ERSRDVVDDVSVSLRLWDTFGDHH [RHOBTB2] | 3.7 ± 0.14 | 3.63 ± 0.22 | – | –
47 | LATSPITVGDLGIVRRRSRDVPES [YJU2B] | 4.42 ± 0.12 | 4.42 ± 0.2 | – | –
48 | YEYDHWDAAIHGFRETEKSRWSEA [ALKBH7] | 3.64 ± 0.38 | 3.73 ± 0.22 | – | –
49 | RLMDVCATSRTDREIKVTLVFEHV [CDK4] | 2.65 ± 0.57 | 2.5 ± 0.15 | – | –
50 | ELKVKDSQPIDLSACTVALHIFQL [TRIP13] | 2.58 ± 0.47 | 2.15 ± 0.6 | – | –
51 | MGGPFSYVYFFCTVPEILVHNIVI [TMEM106C] | 3.23 ± 0.51 | 3.19 ± 0.82 | – | –
52 | VRVNVLLSRYLIEPCGPGKSKLTY [DLC1] | 3.25 ± 0.83 | 2.68 ± 0.38 | – | –
53 | IKEIDEHAPGVPKILVGNRLHLAF [RAB40B] | 1.93 ± 0.33 | 2.19 ± 0.36 | – | –
54 | IYQTLFLNGENSDIKICALGEEWS [GMCL1] | 2.26 ± 0.18 | 2.16 ± 0.19 | – | –
55 | ALSLIRFPLMTIEEFAAGPAQSGI [BTBD1] | 2.09 ± 0.35 | 2.04 ± 0.13 | – | –
56 | SIPQSSLEPLKAIIQYRLPMKKNN [ACSBG2] | 3.48 ± 0.14 | 3.49 ± 0.3 | – | –
57 | LKYENDYPSVILRDPLQTDTLQND [ETS1] | 4.2 ± 0.31 | 4.53 ± 0.34 | – | –
58 | LAFVIVLLAHRLRRWHKSRLLQAS [PCDHGA10] | 2.15 ± 0.48 | 2.21 ± 0.38 | – | –
59 | STSFMSSSSSSSSWLTRRAIRPEN [EMD] | 3.39 ± 0.35 | 3.38 ± 0.16 | – | –
60 | ARSVGLKWRKVGRSLQRGCRALRD [TRADD] | 2.57 ± 0.32 | 2.55 ± 0.46 | – | –
61 | HLRNKTEDLEATSEHFKTTSQKVA [VAMP8] | 5.01 ± 0.24 | 5.07 ± 0.14 | – | –
62 | SQIQYMNTVVSTYVTTNVSLIPPR [TMEM106C] | 2.12 ± 0.22 | 2.07 ± 0.12 | – | –
63 | RPNDDSLAFLDKIKSVKESLQESV [IQUB] | 3.64 ± 0.034 | 3.34 ± 0.32 | – | –
64 | VLKTRMALRKTGQYSGMLDCARRI [SLC25A25] | 2.53 ± 0.17 | 2.78 ± 0.18 | – | –
65 | LVQSSRSEVTELRRVLQGLEIELQ [KRT16] | 3.1 ± 0.24 | 3.08 ± 0.38 | – | –

Reference: the supplement of paper PMC10567573
